Measured values: publication PMC3135403 (The Journal of Cell Biology, 2011)
Values belong to the binder of their own block, whether it stands above or below them.

Tests used:
GST-BakΔTM [1] = biological target: T1, GST-BakΔTM (human, UniProt Q16611 1-186); test: SPR
T1 sequence (looked up): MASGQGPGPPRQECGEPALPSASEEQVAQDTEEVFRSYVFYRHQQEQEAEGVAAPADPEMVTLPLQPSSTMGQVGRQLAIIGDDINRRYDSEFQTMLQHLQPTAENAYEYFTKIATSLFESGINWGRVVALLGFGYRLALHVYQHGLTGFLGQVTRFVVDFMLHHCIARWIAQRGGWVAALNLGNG

GST-Bak 93E/114E = biological target: T2, GST-Bak 93E/114E (human, UniProt Q16611 1-186, Bak 93E/114E (93E) | Bak 93E/114E (114E)); test: SPR
T2 sequence (looked up): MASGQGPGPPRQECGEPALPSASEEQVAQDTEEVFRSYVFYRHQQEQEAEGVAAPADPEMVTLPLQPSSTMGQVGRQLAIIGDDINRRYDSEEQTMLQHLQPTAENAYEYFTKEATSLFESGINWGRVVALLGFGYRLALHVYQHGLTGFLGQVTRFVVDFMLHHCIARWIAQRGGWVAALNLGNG

GST-Bak 93E = biological target: T3, GST-Bak 93E (human, UniProt Q16611 1-186, Bak 93E); test: SPR
T3 sequence (looked up): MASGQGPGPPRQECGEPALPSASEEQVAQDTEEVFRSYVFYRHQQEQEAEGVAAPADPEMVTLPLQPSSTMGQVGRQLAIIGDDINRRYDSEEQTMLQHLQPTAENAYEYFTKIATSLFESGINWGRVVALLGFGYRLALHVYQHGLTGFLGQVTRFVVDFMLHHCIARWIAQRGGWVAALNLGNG

GST-BakΔTM R36A = biological target: T4, GST-BakΔTM R36A (human, UniProt Q16611 1-186, R36A); test: SPR
T4 sequence (looked up): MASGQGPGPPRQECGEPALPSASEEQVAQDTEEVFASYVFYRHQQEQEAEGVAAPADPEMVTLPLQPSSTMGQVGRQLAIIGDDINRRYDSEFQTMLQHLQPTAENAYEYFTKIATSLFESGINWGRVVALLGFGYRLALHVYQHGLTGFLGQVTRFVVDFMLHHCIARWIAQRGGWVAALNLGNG

GST-Bak 114E = biological target: T5, GST-Bak 114E (human, UniProt Q16611 1-186, Bak 114E); test: SPR
T5 sequence (looked up): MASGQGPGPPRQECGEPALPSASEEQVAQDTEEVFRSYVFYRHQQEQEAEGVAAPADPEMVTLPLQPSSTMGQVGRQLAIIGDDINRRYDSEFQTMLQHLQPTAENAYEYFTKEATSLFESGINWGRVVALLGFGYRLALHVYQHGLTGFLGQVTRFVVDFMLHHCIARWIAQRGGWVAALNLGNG

SEC = biological target: the molecule itself; test: SEC
GST-BakΔTM [2] = biological target: T1, GST-BakΔTM; test: SPR; remark: listed apart in the source

Kd (GST-BakΔTM [1]): 24 nM
binding result (GST-Bak 93E/114E): binds
binding result (GST-Bak 93E): binds
binding result (GST-BakΔTM R36A): binds
binding result (GST-Bak 114E): binds
B1: Noxa (full-length, S peptide and His6 tagged) (natural protein, human, UniProt Q13794-1 1-54, looked up)
chain: MPGKKARKNAQPSPARAPAELEVECATQLRRFGDKLNFRQKLLNLISKLFCSGT

B2: His6-Bak R36A (domain or fragment, human, UniProt Q16611 1-186, looked up)
chain: MASGQGPGPPRQECGEPALPSASEEQVAQDTEEVFASYVFYRHQQEQEAEGVAAPADPEMVTLPLQPSSTMGQVGRQLAIIGDDINRRYDSEFQTMLQHLQPTAENAYEYFTKIATSLFESGINWGRVVALLGFGYRLALHVYQHGLTGFLGQVTRFVVDFMLHHCIARWIAQRGGWVAALNLGNG
binding result (SEC): binds

binding result (GST-BakΔTM [2]): binds
B3: tBid (domain or fragment, human, UniProt P55957 61-195, looked up)
chain: GNRSSHSRLGRIEADSESQEDIIRNIARHLAQVGDSMDRSIPPGLVNGLALQLRNTSRSEEDRNRDLATALEQLLQAYPRDMEKEKTMLVLALLLAKKVASHTPSLLRDVFHTTVNFINQNLRTYVRSLARNGMD

binding result (GST-BakΔTM [2]): binds
Binder: MPGKKARKNAQPSPARAPAELEVECATQLRRFGDKLNFRQ (domain or fragment, human, UniProt Q13794-1 1-40, looked up) [NoxaΔCT]
